Source: patent US20130078216A1 (published 2013)
Values belong to the binder of their own block, whether it stands above or below them.

How the values were obtained:
[1] = biological target: T1, (His)6-Mouse ASGPR H1 (mouse, UniProt P34927 61-284); experiment: BIAcore epitope mapping, 1 µM dAb over (His)6 mouse ASGPR H1 on a CM5 chip
T1 construct: Expressed in HEK293E, Ni-NTA purified; coated on a CM5 chip or biotinylated and captured on a streptavidin chip; The entry includes the His tag; also called mouse (His)6-ASGPR H1; mouse (His)6-ASGPR H1 extracellular domain
T1 sequence: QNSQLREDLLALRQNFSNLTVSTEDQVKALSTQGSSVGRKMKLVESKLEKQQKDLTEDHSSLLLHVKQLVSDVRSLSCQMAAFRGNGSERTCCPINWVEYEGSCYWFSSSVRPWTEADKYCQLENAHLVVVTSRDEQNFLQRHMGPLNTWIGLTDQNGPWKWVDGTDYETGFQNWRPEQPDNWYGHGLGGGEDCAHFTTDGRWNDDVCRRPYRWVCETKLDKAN
Procedure: After coating a BlAcore CM5 chip with (His)₆ mouse ASGPR H1, protein A or protein L purified dAb proteins were injected one after the other and in combination over the same antigen surface. The resulting binding RUs were determined in order to see whether the maximal binding capacity of the chip by one dAb molecule can be exceeded by simultaneously injecting a second dAb onto the same antigen surface. If so, the second dAb clearly binds a different epitope compared to the first one. 1 μM concentrations of each dAb were injected at a flow rate of […], both in single injection and co-injection experiments. If injection of the second dAb in the presence of the first dAb reduced the observed binding to the chip surface by greater than 20% (in comparison to observed binding of the second dAb to the chip surface in the absence of the first dAb) both dAbs were assumed to bind overlapping epitopes within the antigen (FIG. 6). Based on results obtained in these experiments murine ASGPR specific dAb clones could be grouped according to epitopes bound within the antigen as shown in FIG. 12.

[2] = biological target: T2, (His)6-Human ASGPR H1 (human, UniProt P07306 62-291); experiment: BIAcore, antigen coated on a CM5 chip, dAb at 2.5 µM
T2 construct: Expressed in HEK293E, Ni-NTA purified; coated on a CM5 chip or biotinylated and captured on a streptavidin chip; The entry includes the His tag; also called human (His)6-ASGPR H1; Human (His)6 ASGPR H1 Q62-L291
T2 sequence: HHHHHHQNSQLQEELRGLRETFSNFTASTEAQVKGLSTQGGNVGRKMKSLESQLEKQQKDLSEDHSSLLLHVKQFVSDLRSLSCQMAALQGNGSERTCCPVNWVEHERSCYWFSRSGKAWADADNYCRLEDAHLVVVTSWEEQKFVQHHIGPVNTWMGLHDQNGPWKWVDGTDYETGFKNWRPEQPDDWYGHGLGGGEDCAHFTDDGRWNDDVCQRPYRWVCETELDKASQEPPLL
Procedure: (§1) FIG. 3: Vκ and VH dAbs selected against recombinant human and mouse ASGPR proteins binding specifically to the target antigen. Antigens were coated on the surface of a CM5 BlAcore chip and protein L purified Vκ dAb DOM26m-20 (top panel) or protein A purified VH dAb DOM26h-61 (bottom panel) was passed over the chip surface at a concentration of 2.5 μM using a flow-rate of […]. In the top panel binding of dAb to (His)₆-mouse ASGPR H1 ( )or human c-kit (His)₆ negative control antigen ( ) is shown. In the bottom panel dAb binding to (His)₆-human ASGPR H1 ( )or human c-kit (His)₆ negative control antigen ( ) is shown.
(§2) Screening by BlAcore took place using dAb supernatant expressed as above diluted 1:2 with HBS-P BlAcore running buffer. Each dAb was then injected over a blank flow cell and a flow cell coated with human or mouse (His)₆-ASGPR H1 on a CM5 chip. […] All unique dAb clones were expressed in 50 ml cultures (OnEX plus carbenicillin) overnight at 37° C. and purified on protein A (VH dAbs) or protein L (Vκ dAbs). Purified dAbs were passed over a CM5 BIAcore chip coated with either human or mouse (His)₆-ASGPR H1 at 20μg/ml (FIG. 3). Those dAbs that bound specifically to (His)₆-ASGPR H1 were then analysed in the flow cytometry cell binding assay (FIG. 4).

[3] = biological target: T3, human c-kit (His)6 negative control antigen (human, UniProt P10721 26-524, limits assumed); experiment: BIAcore, antigens coated on a CM5 chip, human c-kit (His)6 as negative control antigen
T3 construct: Control antigen
T3 sequence (P10721 26-524 limits assumed): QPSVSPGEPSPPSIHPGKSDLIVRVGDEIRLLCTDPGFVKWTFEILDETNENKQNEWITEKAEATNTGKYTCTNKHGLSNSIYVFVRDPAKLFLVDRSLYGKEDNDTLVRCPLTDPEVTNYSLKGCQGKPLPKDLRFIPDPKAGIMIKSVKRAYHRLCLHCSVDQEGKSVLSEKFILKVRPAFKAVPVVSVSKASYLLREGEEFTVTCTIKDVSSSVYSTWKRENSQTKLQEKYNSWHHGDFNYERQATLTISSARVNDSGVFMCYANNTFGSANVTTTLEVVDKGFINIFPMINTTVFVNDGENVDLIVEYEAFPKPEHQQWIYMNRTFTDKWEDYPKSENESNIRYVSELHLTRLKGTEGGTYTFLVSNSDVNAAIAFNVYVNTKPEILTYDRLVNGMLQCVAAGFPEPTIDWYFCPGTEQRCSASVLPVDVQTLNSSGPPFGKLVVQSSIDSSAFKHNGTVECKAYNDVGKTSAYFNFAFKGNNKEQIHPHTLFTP
Procedure: as §1, §2

[4] = biological target: T4, (His)6-Human ASGPR H1 Stalk Domain (human, UniProt P07306 62-153); experiment: BIAcore, biotinylated stalk domain on a streptavidin chip, flow 40 µl/min
T4 construct: Biotinylated and immobilised on a streptavidin chip; also called human (His)6-ASGPR H1 stalk domain; (His)6-human ASGPR H1 stalk domain residues glutamine 62-cysteine 153
T4 sequence: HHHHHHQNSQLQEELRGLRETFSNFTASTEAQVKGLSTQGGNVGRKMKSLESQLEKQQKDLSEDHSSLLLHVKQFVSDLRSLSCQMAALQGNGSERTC
Source text: (§3) To assay for potential dAb binding activity human (His)₆-ASGPR H1 stalk domain, human (His)₆-ASGPR H1 lectin domain and mouse (His)₆-ASGPR H1 extracellular domain were biotinylated and immobilised on a biacore Streptavidin chip surface.

[5] = biological target: T1, (His)6-Mouse ASGPR H1; experiment: BIAcore, biotinylated antigen on a streptavidin chip, FLAG-tagged dAb, 40 µl/min
Source text: as §3

[6] = biological target: T5, (His)6-Human ASGPR H1 Lectin Domain (human, UniProt P07306 154-291); experiment: as above
T5 construct: Biotinylated and immobilised on a streptavidin chip; also called human (His)6-ASGPR H1 lectin domain; human (His)6 lectin domain
T5 sequence: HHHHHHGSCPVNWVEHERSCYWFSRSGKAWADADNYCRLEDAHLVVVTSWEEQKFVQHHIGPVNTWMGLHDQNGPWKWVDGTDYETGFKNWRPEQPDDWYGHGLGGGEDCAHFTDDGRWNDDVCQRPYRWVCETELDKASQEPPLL
Source text: as §3

[7] = biological target: T6, mouse ASGPR on the murine liver cell line Hepa1c1c7 (and on mouse liver in vivo) (mouse, UniProt P34927 1-284); experiment: cell-based or functional assay
T6 sequence (looked up): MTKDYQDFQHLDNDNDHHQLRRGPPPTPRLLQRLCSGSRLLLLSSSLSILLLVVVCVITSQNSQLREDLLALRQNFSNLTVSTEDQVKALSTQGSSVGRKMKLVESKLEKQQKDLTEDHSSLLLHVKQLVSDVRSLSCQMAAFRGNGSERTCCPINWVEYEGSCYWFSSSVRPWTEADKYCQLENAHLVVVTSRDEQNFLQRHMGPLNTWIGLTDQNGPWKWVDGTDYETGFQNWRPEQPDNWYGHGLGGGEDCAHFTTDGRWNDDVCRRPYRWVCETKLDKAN

[8] = biological target: T5, (His)6-Human ASGPR H1 Lectin Domain; experiment: BIAcore, biotinylated antigen on a streptavidin chip, 60 nM dAb, 40 µl/min
[9] = biological target: T2, (His)6-Human ASGPR H1; experiment: BIAcore, biotinylated (His)6-ASGPR H1 on a streptavidin chip, 62 nM dAb, 40 µl/min
Procedure: ( )to human (His)₆-ASGPR H1. Biotinylated (His)₆-ASGPR H1 was immobilised on a Biacore streptavidin chip surface and 62 nM dAb passed over at a flow rate of 40 μl.min⁻¹.

[10] = biological target: T1, (His)6-Mouse ASGPR H1; experiment: BIAcore, antigen coated on a CM5 chip, dAb at 2.5 µM
Procedure: as §1, §2

B1: DOM26m-50 (other, not shown: small tags and cut ends)
VL: DIQMTQSPSSLSASVGDRVTITCRASISIYEHLNWYQQKPGKAPTLLIWDSSGLQSGVPSRFSGSGSGTDFTLTISSLQPEDFATYYCVQHHSHPPTFGQGTKVEIKR
notes: human Vκ domain antibody (dAb) selected on mouse ASGPR H1
binding result [1]: binds

B2: DOM26h-61 (other, not shown: small tags and cut ends)
VH: EVQLLESGGGLVQPGGSLRLSCAASGFTFSTYPMHWARQAPGKGLEWVSSISPSGDSTYYADSVKGRFTISRDNSKNTLYLQMNSLRAEDTAVYYCAKNALRFDYWGQGTLVTVSS
notes: human VH domain antibody (dAb); also called VH dAb DOM26h-61
binding result [2]: binds
binding result [3]: no binding (tested: 2.5 µM)

B4: DOM26m-54 (other, not shown: small tags and cut ends)
VL: DIQMTQSPSSLSASVGDRVTITCRASLNIDTDLVWYQQKPGKAPKLLIAGWSGLQSGVPSRFSGSGSGTDFTLTISSLQPEDFATYYCGQFAREPFTFGQGTKVEIKR
notes: as for B1
binding result [1]: binds

B5: DOM26m-58 (other, not shown: small tags and cut ends)
VL: DIQMTQSPSSLSASVGDRVTITCRASQPIRNALTWYQQKPGKAPKLLIYRTSHLQSGVPSRFSGSGSGTDFTLTISSLQPEDFATYYCQQTWTMPLTFGQGTKVEIKR
notes: as for B1
binding result [1]: binds

B6: DOM26m-7 (other, not shown: small tags and cut ends)
VH: EVQLLESGGGLVQPGGSLRLSCAASGFTFDDYEMGWVRQAPGKGLEWVSLISAQGRVTYYADSVKGRFTISRDNSKNTLYLQMNSLRAEDTAVYYCAKNSPSYLLNFDYWGQGTLVTVSS
notes: human VH domain antibody (dAb) selected on mouse ASGPR H1
binding result [1]: binds

B7: DOM26h-196-61 (other, not shown: small tags and cut ends)
VH: EVQLLESGGGLVQPGGSLRLSCAASGFTFEKYAMAWVRQAPGKGLEWVSRISARGVTTYYADSVKGRFTISRDNSKNTLYLQMNSLRAEDTAVYYCAKHKRHEHTRFDSWGQGTLVTVSS
counts in the liver (percentage of injected dose) 3 hours after injection of DOTA-NHS conjugated, 111In labelled dAb in balb/c mice, against VH dummy 2 [7]: ~35 fold
binding result [4]: no binding (tested: 60 nM)
binding result [8]: binds
binding result [9]: binds

B8: DOM26h-196 (other, not shown: small tags and cut ends)
VH: EVQLLESGGGLVQPGGSLRLSCAASGFTFEKYAMAWVRQAPGKGLEWVSRISMAGMTTYYADSVKGRFTISRDNSKNTLYLQMNSLRAEDTAVYYCAKHKKSAHTRFDSWGQGTLVTVSS
notes: human VH domain antibody (dAb)
binding result [9]: binds

B12: DOM26h-161-84 (other, not shown: small tags and cut ends)
VL: DIQMTQSPSSLSASVGDRVTITCRASQAIGRWLLWYQQKPGKAPKLLIGPGSRLRSGVPSRFSGSGSGTDFTLTISSLQPEDFVTYYCQQAYAWPPTFGQGTKVEIKR
counts in the liver (percentage of injected dose) 3 hours after injection of DOTA-NHS conjugated, 111In labelled dAb in balb/c mice, against Vκ dummy [7]: 46 fold
binding result [4]: no binding
binding result [6]: binds

B13: DOM26m-33 carrying the point mutation S116C, DOTA-Maleimide conjugated and 111In labelled (other)
VH: EVQLLESGGGLVQPGGSLRLSCAASGFTFAKYDMIWVRQAPGKGLEWVSGINHSGSRTYYADSVKGRFTISRDNSKNMLYLQMNSLRAEDTAVYYCAKSGSSFDYWGQGTLVTVSC
modifications: DOTA-Maleimide on the C-terminal cysteine (S116C), labelled with 111In
counts in the liver (percent injected dose) 3 hours after intravenous injection of 111In labelled dAb in balb/c mice, against VH dummy 2 [7]: 4.9 fold
counts in the liver (percent injected dose) 3 hours after intravenous injection of 111In labelled dAb in balb/c mice, against Vκ dummy [7]: 12.4 fold

Now from value to binder:

binding result [4]: no binding
binding result [5]: binds
binding result [6]: binds
B3: DOM26h-220-1 (other, not shown: small tags and cut ends)
VH: EVQLLESGGGLVQPGGSLRLSCAASGFTFEDYGMGWVRQAPGKGLEWVSAIGRNGSQTYYADSVKGRFTISRDNSKNTLYLQMNSLRAEDTAVYYCAKLRRGRGLNTFTLDYWGQGTLVTVSS

binding result [1]: binds
B9: DOM26m-29 (other, not shown: small tags and cut ends)
VH: EVQLLESGGGLVQPGGSLRLSCAASGFTFEDSGMIWARQAPGKGLEWVSGIASEGSTTYYADSVKGRFTISRDNSKNTLYLQMNSLRAEDTAVYYCAKSGLSFDYWGQGTLVTVSS
notes: as for B6

binding result [4]: no binding
binding result [5]: binds
binding result [6]: binds
B10: DOM26h-210-2 (other, not shown: small tags and cut ends)
VH: ELQLLEFGGGLVQPGGSLRLSCTTSGFTFSRYTMGWVRQAPGKGLEWVSAIGPPGSNTYYADSVKGRFTISRDNSKNTLYLQMNSLRAEDTAVYYCAKWVMLRGRFDYWGQGTLVTVSS

binding result [10]: binds
binding result [3]: no binding (tested: 2.5 µM)
B11: DOM26m-20 (other, not shown: small tags and cut ends)
VL: DIQMTQSPSSLSASVGDRVTITCRASKYIGSDLYWYQQKPGKAPKLLIGGGSRLQSGVSSRFSGSGSGTDFTLTISSLQPEDFATYYCGQKWARPLTFGQGTKVEIKR
notes: human Vκ domain antibody (dAb) selected on mouse ASGPR H1; also called Vκ dAb DOM26m-20
